Experimental data: IntAct's records for PubMed 20498073

Target: expa_drome ex (UniProt Q07436)
Sequence of UniProt Q07436 (Q07436 whole entry): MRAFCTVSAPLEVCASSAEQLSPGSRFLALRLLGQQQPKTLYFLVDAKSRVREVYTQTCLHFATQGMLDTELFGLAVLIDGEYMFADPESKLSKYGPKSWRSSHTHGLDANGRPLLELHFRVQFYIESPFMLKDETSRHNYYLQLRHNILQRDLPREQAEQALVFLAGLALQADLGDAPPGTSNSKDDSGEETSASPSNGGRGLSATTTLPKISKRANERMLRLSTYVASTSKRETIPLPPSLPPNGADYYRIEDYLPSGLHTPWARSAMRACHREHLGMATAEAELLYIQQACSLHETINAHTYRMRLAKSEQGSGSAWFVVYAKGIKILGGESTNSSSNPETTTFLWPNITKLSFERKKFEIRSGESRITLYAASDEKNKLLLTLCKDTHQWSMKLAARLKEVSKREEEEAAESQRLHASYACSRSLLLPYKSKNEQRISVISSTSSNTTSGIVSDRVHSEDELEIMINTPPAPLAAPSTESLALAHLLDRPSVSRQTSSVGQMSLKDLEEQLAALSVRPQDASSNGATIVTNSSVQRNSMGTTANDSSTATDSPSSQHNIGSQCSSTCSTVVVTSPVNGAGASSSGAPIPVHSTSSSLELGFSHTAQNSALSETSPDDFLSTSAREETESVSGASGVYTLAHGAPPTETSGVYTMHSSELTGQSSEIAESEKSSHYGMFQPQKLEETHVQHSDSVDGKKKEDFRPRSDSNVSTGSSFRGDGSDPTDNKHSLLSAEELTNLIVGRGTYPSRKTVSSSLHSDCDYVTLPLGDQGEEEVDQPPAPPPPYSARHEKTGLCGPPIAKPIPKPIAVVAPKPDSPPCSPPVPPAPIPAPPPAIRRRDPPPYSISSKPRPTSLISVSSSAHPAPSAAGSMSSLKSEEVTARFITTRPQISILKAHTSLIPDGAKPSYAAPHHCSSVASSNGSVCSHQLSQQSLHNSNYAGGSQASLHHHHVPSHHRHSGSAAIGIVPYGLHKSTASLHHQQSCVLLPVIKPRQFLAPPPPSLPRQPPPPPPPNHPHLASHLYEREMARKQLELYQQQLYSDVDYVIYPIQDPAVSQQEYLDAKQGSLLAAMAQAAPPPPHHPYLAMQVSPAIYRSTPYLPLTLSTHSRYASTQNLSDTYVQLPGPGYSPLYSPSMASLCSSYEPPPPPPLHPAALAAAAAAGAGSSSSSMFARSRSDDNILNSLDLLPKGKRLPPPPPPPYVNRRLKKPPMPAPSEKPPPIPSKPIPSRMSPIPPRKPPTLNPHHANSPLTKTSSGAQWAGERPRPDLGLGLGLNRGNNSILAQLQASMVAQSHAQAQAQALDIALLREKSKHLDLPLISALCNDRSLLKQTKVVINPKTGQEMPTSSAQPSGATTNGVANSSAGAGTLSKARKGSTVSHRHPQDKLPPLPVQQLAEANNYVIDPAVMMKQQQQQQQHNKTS

Substance: Protein crumbs (Drosophila melanogaster (Fruit fly)), P10040 Y2119A;P2121A;E2125A
- effect of a mutation on the interaction: disrupting interaction
